# T1: human FcgRIIa type H extracellular domain (human, UniProt P12318 34-217)
# T1 construct: extracellular domain; also called hFcgRIIaH
# T1 sequence (looked up): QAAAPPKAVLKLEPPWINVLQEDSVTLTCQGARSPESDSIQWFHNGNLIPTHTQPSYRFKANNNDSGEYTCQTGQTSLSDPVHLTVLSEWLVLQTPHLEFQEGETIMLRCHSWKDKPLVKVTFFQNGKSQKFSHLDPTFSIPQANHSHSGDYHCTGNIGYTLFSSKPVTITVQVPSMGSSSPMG
# T2: human FcgRIIa type R extracellular domain (human, UniProt P12318 34-217)
# T2 construct: extracellular domain; also called hFcgRIIaR
# T2 sequence (looked up): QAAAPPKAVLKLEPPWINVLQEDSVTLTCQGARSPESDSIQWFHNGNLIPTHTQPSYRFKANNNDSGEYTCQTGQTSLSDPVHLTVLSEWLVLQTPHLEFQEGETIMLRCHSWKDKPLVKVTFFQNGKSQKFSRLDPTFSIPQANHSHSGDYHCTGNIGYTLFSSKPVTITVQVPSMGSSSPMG
# T3: human FcgRIIb extracellular domain (human, UniProt P31994 43-217)
# T3 construct: extracellular domain; also called hFcgRIIb
# T3 sequence (looked up): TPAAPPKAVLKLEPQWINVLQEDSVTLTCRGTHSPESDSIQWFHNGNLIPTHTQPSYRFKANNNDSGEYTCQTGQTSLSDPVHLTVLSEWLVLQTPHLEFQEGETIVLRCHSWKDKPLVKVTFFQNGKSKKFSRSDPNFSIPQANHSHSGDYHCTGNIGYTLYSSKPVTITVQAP
# Columns and labels:
# [1] = molecular target: T4, human FcgRIa extracellular domain (human, UniProt P12314 16-292); assay: SPR 25C
# T4 construct: extracellular domain; also called hFcgRIa
# Experimental: (§1) Biacore T200 (GE Healthcare) was used to evaluate the binding activity to the respective human Fcγ receptor (hereafter referred to as FcγR). Measurement was performed at 25° C. using 50 mM phosphate, 150 mM NaCl, 0.05 w/v %-P20, pH 7.4 as buffer. About 1000 RU of antibody was captured using a sensor chip immobilized with CaptureSelect™ Human Fab-lambda Kinetics Biotin Conjugate (Thermo Fisher Scientific) as a molecule for ligand capturing. Human FcγR was diluted to 8 nM for FcγRIa and 1000 nM for other FcγR in the measurement buffer, and it was interacted to the captured antibody. The binding activity of each antibody to FcγR was assessed by calculating the binding amount of FcγR (RU) per unit amount of antibody using Biacore T200 Evaluation Software 2.0.
# [2] = molecular target: T1, human FcgRIIa type H extracellular …; assay: SPR 25C
# Experimental: as §1
# [3] = molecular target: T2, human FcgRIIa type R extracellular …; assay: SPR 25C
# Experimental: as §1
# [4] = molecular target: T3, human FcgRIIb extracellular domain; assay: SPR 25C
# Experimental: as §1
# [5] = molecular target: T5, human FcgRIIIa F158 extracellular domain (human, UniProt P08637 17-208); assay: SPR 25C
# T5 construct: extracellular domain; also called hFcgRIIIaF
# Experimental: as §1
# [6] = molecular target: T6, human FcgRIIIa V158 extracellular domain (human, UniProt P08637 17-208); assay: SPR 25C
# T6 construct: extracellular domain; also called hFcgRIIIaV
# Experimental: as §1
# human FcRn = human FcRn (human, UniProt P55899 24-290; P61769 21-119); assay: SPR 25C pH 6.0, steady state
# Experimental: Biacore T200 (GE Healthcare) was used to assess the binding activity to human FcRn. Measurement was performed at 25° C. using 50 mM phosphate, 150 mM NaCl, 0.05 w/v %-P20, pH 6.0 as buffer. Human FcRn proteins used for this determination were prepared by the procedure described in WO2010107110. About 400 RU of antibody was captured using a sensor chip immobilized with CaptureSelect™ Human Fab-lambda Kinetics Biotin Conjugate (Thermo Fisher Scientific) as a molecule for ligand capturing, followed by the binding of human FcRn diluted in measuring buffer. The activity of the respective antibodies to bind FcRn was assessed by calculating KD(mol/L) by the steady-state model using Biacore T200 Evaluation Software 2.0.
# T5 sequence (P08637 17-208): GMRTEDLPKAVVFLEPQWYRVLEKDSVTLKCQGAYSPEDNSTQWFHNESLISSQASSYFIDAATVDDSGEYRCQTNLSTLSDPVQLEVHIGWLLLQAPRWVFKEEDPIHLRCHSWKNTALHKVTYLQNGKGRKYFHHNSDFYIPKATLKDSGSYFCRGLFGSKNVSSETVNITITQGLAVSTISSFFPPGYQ
# T6 sequence (P08637 17-208 F176V): as the sequence (P08637 17-208) above, with F160V counted along it
# T4 sequence (P12314 16-292): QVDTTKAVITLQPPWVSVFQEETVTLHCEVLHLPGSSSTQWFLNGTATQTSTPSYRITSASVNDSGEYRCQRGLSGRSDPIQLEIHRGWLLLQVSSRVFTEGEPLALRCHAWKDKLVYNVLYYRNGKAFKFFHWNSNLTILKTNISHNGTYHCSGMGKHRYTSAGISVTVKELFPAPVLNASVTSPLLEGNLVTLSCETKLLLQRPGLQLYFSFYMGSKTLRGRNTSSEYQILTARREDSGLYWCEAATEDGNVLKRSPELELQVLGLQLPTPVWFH
binding per 1RU antibody [1] [RU],relative binding (A375-G1T3/B167-Lamlib=1) [1],binding per 1RU antibody [2] [RU],relative binding (A375-G1T3/B167-Lamlib=1) [2],binding per 1RU antibody [3] [RU],relative binding (A375-G1T3/B167-Lamlib=1) [3],binding per 1RU antibody [4] [RU],relative binding (A375-G1T3/B167-Lamlib=1) [4],binding per 1RU antibody [5] [RU],relative binding (A375-G1T3/B167-Lamlib=1) [5],binding per 1RU antibody [6] [RU],relative binding (A375-G1T3/B167-Lamlib=1) [6],Kd (human FcRn) [nM],Binder
0.0033,0.04,0.0479,0.84,0.047,1.01,0.0489,4.46,0.0006,0.03,0.0009,0.01,1320,"A375-MY518a/B167-Lamlib (antibody, human IgG1, lambda, copies: 2 + 2) heavy: EVQLVESGGGLVKPGGSLRLSCAASGFTFSTFTMNWVRQAPGKGLEWVSSISSKSTYIEYADSFKVRFTISRDNAKNSLYLQMNSLRAEDTAVYYCARYGAKNFLNWVFDYWGQGTLVTVSSASTKGPSVFPLAPSSKSTSGGTAALGCLVKDYFPEPVTVSWNSGALTSGVHTFPAVLQSSGLYSLSSVVTVPSSSLGTQTYICNVNHKPSNTKVDKRVEPKSCDKTHTCPPCPAPELWNGPSVFLFPPKPKDTLMISRTPEVTCVVVDVSDEDPEVKFNWYVDGVEVHNAKTKPREELYNSTYRVVSVLTVLHQDWLNGKEYKCKVSNTALPKPIEKTISKAKGQPREPQVYTLPPSREEMTKNQVSLTCLVKGFYPSDIAVEWESNGQPENNYKTTPPVLDSDGSFFLYSKLTVDKSRWQQGNVFSCSVMHEALHNHYTQKSLSLSP light: QSALTQPPSASGSPGQTVTISCTGTRYDVGYYEYVSWYQQHPGKAPKLMIYETSKRLSGVPDRFSGSKSGNTASLTVSGLQAEDEADYYCSSYRYEHQVSFGGGTKLTVLGQPKAAPSVTLFPPSSEELQANKATLVCLISDFYPGAVTVAWKADSSPVKAGVETTTPSKQSNNKYAASSYLSLTPEQWKSHRSYSCQVTHEGSTVEKTVAPTECS"
0.0937,1.15,0.0497,0.88,0.168,3.62,0.156,14.3,0.0056,0.26,0.0019,0.03,1420,"A375-P253/B167-Lamlib (antibody, human IgG1, lambda, copies: 2 + 2) heavy: not shown light: QSALTQPPSASGSPGQTVTISCTGTRYDVGYYEYVSWYQQHPGKAPKLMIYETSKRLSGVPDRFSGSKSGNTASLTVSGLQAEDEADYYCSSYRYEHQVSFGGGTKLTVLGQPKAAPSVTLFPPSSEELQANKATLVCLISDFYPGAVTVAWKADSSPVKAGVETTTPSKQSNNKYAASSYLSLTPEQWKSHRSYSCQVTHEGSTVEKTVAPTECS"
0.0962,1.18,0.0029,0.05,0.0371,0.8,0.143,13,0.0001,0,0.0001,0,1700,"A375-P587/B167-Lamlib (antibody, human IgG1, lambda, copies: 2 + 2) heavy: EVQLVESGGGLVKPGGSLRLSCAASGFTFSTFTMNWVRQAPGKGLEWVSSISSKSTYIEYADSFKVRFTISRDNAKNSLYLQMNSLRAEDTAVYYCARYGAKNFLNWVFDYWGQGTLVTVSSASTKGPSVFPLAPSSKSTSGGTAALGCLVKDYFPEPVTVSWNSGALTSGVHTFPAVLQSSGLYSLSSVVTVPSSSLGTQTYICNVNHKPSNTKVDKKVEPKSCDKTHTCPPCPAPDLLGGDSVFLFPPKPKDTLMISRTPEVTCVVIDVAEEDGEVKFNWYVDGVEVHNAKTKPREEQYNSTYRVVSVLTVLHQDWLNGKEYKCKVSNKALPAPIEKTISKAKGQPREPQVYTLPPSRDELTKNQVSLTCLVKGFYPSDIAVEWESNGQPENNYKTTPPVLDSDGSFFLYSKLTVDKSRWQQGNVFSCSVMHEALHNHYTQKSLSLSP light: QSALTQPPSASGSPGQTVTISCTGTRYDVGYYEYVSWYQQHPGKAPKLMIYETSKRLSGVPDRFSGSKSGNTASLTVSGLQAEDEADYYCSSYRYEHQVSFGGGTKLTVLGQPKAAPSVTLFPPSSEELQANKATLVCLISDFYPGAVTVAWKADSSPVKAGVETTTPSKQSNNKYAASSYLSLTPEQWKSHRSYSCQVTHEGSTVEKTVAPTECS"
0.0022,0.03,0.0514,0.91,0.0519,1.12,0.0512,4.67,0.0012,0.06,0.0014,0.02,1100,"A375-SCF025/B167-Lamlib (antibody, human IgG1, lambda) heavy: EVQLVESGGGLVKPGGSLRLSCAASGFTFSTFTMNWVRQAPGKGLEWVSSISSKSTYIEYADSFKVRFTISRDNAKNSLYLQMNSLRAEDTAVYYCARYGAKNFLNWVFDYWGQGTLVTVSSASTKGPSVFPLAPSSKSTSGGTAALGCLVKDYFPEPVTVSWNSGALTSGVHTFPAVLQSSGLYSLSSVVTVPSSSLGTQTYICNVNHKPSNTKVDKKVEPKSCDKTHTCPPCPAPELWNGPSVFLFPPKPKDTLMISRTPEVTCVVVDVSDEDPEVKFNWYVDGVEVHNAKTKPREELYNSTYRVVSVLTVLHQDWLNGKEYKCKVSNTALPKPIEKTISKAKGQRREPQVYTLPPSREEMTKNQVSLTCLVKGFYPSDIAVEWESNGQPENNYKTTPPVLDSDGSFFLYSKLTVKKSRWQQGNVFSCSVMHEALHNHYTQKSLSLSP light: QSALTQPPSASGSPGQTVTISCTGTRYDVGYYEYVSWYQQHPGKAPKLMIYETSKRLSGVPDRFSGSKSGNTASLTVSGLQAEDEADYYCSSYRYEHQVSFGGGTKLTVLGQPKAAPSVTLFPPSSEELQANKATLVCLISDFYPGAVTVAWKADSSPVKAGVETTTPSKQSNNKYAASSYLSLTPEQWKSHRSYSCQVTHEGSTVEKTVAPTECS"
0.0021,0.03,0.0514,0.91,0.0518,1.12,0.0511,4.67,0.0009,0.04,0.0016,0.02,1130,"A375-SCF025a/B167-Lamlib (antibody, human IgG1, lambda) heavy: EVQLVESGGGLVKPGGSLRLSCAASGFTFSTFTMNWVRQAPGKGLEWVSSISSKSTYIEYADSFKVRFTISRDNAKNSLYLQMNSLRAEDTAVYYCARYGAKNFLNWVFDYWGQGTLVTVSSASTKGPSVFPLAPSSKSTSGGTAALGCLVKDYFPEPVTVSWNSGALTSGVHTFPAVLQSSGLYSLSSVVTVPSSSLGTQTYICNVNHKPSNTKVDKRVEPKSCDKTHTCPPCPAPELWNGPSVFLFPPKPKDTLMISRTPEVTCVVVDVSDEDPEVKFNWYVDGVEVHNAKTKPREELYNSTYRVVSVLTVLHQDWLNGKEYKCKVSNTALPKPIEKTISKAKGQRREPQVYTLPPSREEMTKNQVSLTCLVKGFYPSDIAVEWESNGQPENNYKTTPPVLDSDGSFFLYSKLTVKKSRWQQGNVFSCSVMHEALHNHYTQKSLSLSP light: QSALTQPPSASGSPGQTVTISCTGTRYDVGYYEYVSWYQQHPGKAPKLMIYETSKRLSGVPDRFSGSKSGNTASLTVSGLQAEDEADYYCSSYRYEHQVSFGGGTKLTVLGQPKAAPSVTLFPPSSEELQANKATLVCLISDFYPGAVTVAWKADSSPVKAGVETTTPSKQSNNKYAASSYLSLTPEQWKSHRSYSCQVTHEGSTVEKTVAPTECS"

# Source: US20230272099A1 (Chugai, published 2023)
